Data published in IntAct's records for PubMed 30545121.

B1: Ribosome maturation protein SBDS (Homo sapiens), Q9Y3A5 (parent)
chain: MSIFTPTNQIRLTNVAVVRMKRAGKRFEIACYKNKVVGWRSGVEKDLDEVLQTHSVFVNVSKGQVAKKEDLISAFGTDDQTEICKQILTKGEVQVSDKERHTQLEQMFRDIATIVADKCVNPETKRPYTVILIERAMKDIHYSVKTNKSTKQQALEVIKQLKEKMKIERAHMRLRFILPVNEGKKLKEKLKPLIKVIESEDYGQQLEIVCLIDPGCFREIDELIKKETKGKGSLEVLNLKDVEEGDEKFE
partner: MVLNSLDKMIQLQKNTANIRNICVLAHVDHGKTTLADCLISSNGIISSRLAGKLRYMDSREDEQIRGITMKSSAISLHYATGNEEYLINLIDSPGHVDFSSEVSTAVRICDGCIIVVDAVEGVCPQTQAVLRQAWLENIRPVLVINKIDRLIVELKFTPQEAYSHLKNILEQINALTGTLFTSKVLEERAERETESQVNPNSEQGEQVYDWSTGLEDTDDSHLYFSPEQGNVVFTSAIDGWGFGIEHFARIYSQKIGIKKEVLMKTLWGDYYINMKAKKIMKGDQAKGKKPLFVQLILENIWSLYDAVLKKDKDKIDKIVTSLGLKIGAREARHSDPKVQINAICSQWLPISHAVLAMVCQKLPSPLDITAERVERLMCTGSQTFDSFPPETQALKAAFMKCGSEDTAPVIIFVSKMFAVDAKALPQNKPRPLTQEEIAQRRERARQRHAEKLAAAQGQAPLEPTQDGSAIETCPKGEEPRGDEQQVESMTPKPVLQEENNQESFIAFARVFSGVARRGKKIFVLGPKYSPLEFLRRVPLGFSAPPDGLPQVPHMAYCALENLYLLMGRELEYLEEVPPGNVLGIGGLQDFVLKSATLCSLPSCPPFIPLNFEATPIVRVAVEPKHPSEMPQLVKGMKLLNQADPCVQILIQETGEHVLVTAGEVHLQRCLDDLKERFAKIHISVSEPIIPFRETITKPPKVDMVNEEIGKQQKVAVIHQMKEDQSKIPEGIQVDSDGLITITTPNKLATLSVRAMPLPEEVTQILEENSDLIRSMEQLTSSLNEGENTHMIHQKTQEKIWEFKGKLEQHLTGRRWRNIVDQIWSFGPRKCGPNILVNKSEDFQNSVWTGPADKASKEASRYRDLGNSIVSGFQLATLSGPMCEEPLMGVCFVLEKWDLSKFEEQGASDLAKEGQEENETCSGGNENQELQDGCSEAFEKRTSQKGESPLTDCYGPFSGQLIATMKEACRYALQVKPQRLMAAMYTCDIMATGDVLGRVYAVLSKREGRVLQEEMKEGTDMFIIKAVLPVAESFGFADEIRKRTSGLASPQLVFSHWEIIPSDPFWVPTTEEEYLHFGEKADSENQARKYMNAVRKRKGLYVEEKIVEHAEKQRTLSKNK

Variants of: B1
Conditions: with efl1_human EFL1, Q7Z2Z2

Row | Variant | effect of a mutation on the interaction
1 | R126T | decreasing interaction strength
2 | K67E | decreasing interaction strength
3 | S143L | disrupting interaction strength
4 | I167T | decreasing interaction strength
5 | R19Q | decreasing interaction strength
6 | R175W | decreasing interaction strength
7 | I212T | disrupting interaction strength
